# Measurements reported in paper PMC8986097, “SUMO-mediated recruitment allows timely function of the Yen1 nuclease in mitotic cells” (PLoS Genetics, 2022).
# Numbering of substitutions follows the chain as printed. Names and notes keep the numbering of the source.
# B1: Yen1 SIM1-2ΔΔ (D635A D636A D637A V675A E677A), HA-tagged, purified (natural protein, S. cerevisiae, UniProt P40028 1-759, looked up)
# chain: MGVSQIWEFLKPYLQDSRIPLRKFVIDFNKSQKRAPRIAIDAYGWLFECGFIQNIDISARSRSRSRSPTRSPRDSDIDSSQEYYGSRSYTTTGKAVINFISRLKELLSLNVEFLLVFDGVMKPSFKRKFNHEQNATTCDDEKEYYSSWEQHVKNHEVYGNCKGLLAPSDPEFISLVRKLLDLMNISYVIACGEGEAQCVWLQVSGAVDFILSNDSDTLVFGGEKILKNYSKFYDDFGPSSITSHSPSRHHDSKESFVTVIDLPKINKVAGKKFDRLSLLFFSVLLGADYNRGVKGLGKNKSLQLAQCEDPNFSMEFYDIFKDFNLEDLTSESLRKSRYRLFQKRLYLYCKDHSVELFGRNYPVLLNQGSFEGWPSTVAIMHYFHPIVQPYFDEEVLSDKYINMAGNGHYRNLNFNELKYFLQSLNLPQISSFDKWFHDSMHEMFLLREFLSIDESDNIGKGNMRITEEKIMNIDGGKFQIPCFKIRYTTFLPNIPISSQSPLKRSNSPSRSKSPTRRQMDIMEHPNSLWLPKYLIPQSHPLVIQYYETQQLIQKEKEKKGKKSNKSRLPQKNNLDEFLRKHTSPIKSIGKVGESRKEILEPVRKRLFVDTDEDTSLEEIPAPTRLTTVDEHSDNAAASLIFVDEITNSQSVLDSSPGKRIRDLTQDEQVDVWKDAIAISPIKKSRTTNAEKNPPESGLKSRSSITINARLQGTKMLPPNLTAPRLEREHSSVLDQLVTDAQDTVDRFVACDSDSSSTIE
# B2: Yen1 SIM2Δ (V675A E677A), HA-tagged, purified (natural protein, S. cerevisiae, UniProt P40028 1-759, looked up)
# chain: B1 chain with A635D, A636D, A637D
# B3: Yen1 SIM1Δ (D635A D636A D637A), HA-tagged, purified (natural protein, S. cerevisiae, UniProt P40028 1-759, looked up)
# chain: B1 chain with A675V, A677E
# Target: GST-Smt3 (S. cerevisiae, UniProt Q12306 1-101 = SUMO)
# Experiment: cell-based or functional assay
# Chain of GST-Smt3 (Q12306 whole entry): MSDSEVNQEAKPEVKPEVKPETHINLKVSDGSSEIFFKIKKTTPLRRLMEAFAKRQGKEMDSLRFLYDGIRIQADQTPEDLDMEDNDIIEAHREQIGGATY
row,"fraction of SUMOylated Yen1 recovered by denaturing Ni-NTA pull-down of 6xHis-Smt3 from cells grown in 0.3% MMS, relative to wild-type Yen1",Binder
1,1%,B1
2,~20%,B2
3,5%,B3
